Several values for one entry are separate records, joined by “and”; a condition that tells them apart may be missing. Equal values may be shown once.
Target: F-actin (filamentous actin from rabbit muscle) (rabbit, UniProt P68135 1-377)
Experiment: co-sedimentation

B1: 90 kDa isoform of palladin (natural protein)
chain: MSALASRSAPAMQSSGSFNYARPKQFIAAQNLGPASGHGTPASSPSSSSLPSPMSPTPRQFGRAPVPPFAQPFGAEPEAPWGSSSPSPPPPPPPVFSPTAAFPVPDVFPLPPPPPPLPSPGQASHCSSPATRFGHSQTPAAFLSALLPSQPPPAAVNALGLPKGVTPAGFPKKASRTARIASDEEIQGTKDAVIQDLERKLRFKEDLLNNGQPRLTYEERMARRLLGADSATVFNIQEPEEETANQEYKVSSCEQRLISEIEYRLERSPVDESGDEVQYGDVPVENGMAPFFEMKLKHYKIFEGMPVTFTCRVAGNPKPKIYWFKDGKQISPKSDHYTIQRDLDGTCSLHTTASTLDDDGNYTIMAANPQGRISCTGRLMVQAVNQRGRSPRSPSGHPHVRRPRSRSRDSGDENEPIQERFFRPHFLQAPGDLTVQEGKLCRMDCKVSGLPTPDLSWQLDGKPVRPDSAHKMLVRENGVHSLIIEPVTSRDAGIYTCIATNRAGQNSFSLELVVAAKEAHKPPVFIEKLQNTGVADGYPVRLECRVLGVPPPQIFWKKENESLTHSTDRVSMHQDNHGYICLLIQGATKEDAGWYTVSAKNEAGIVSCTARLDVYTQWHQQSQSTKPKKVRPSASRYAALSDQGLDIKAAFQPEANPSHLTLNTALVESEDL
**Q.** With B1 as the binder, how does the Kd read?
**A.** 2110 nM and 3100 nM
